The record followed here is US20230399394A1 (SUNSHINE GUOJIAN PHARMACEUTICAL SHANGHAI, published 2023).

Test [1] concerns the target T1, Pep10 (human, N-terminal biotin).
T1 construct: Synthetic 20-mer of human IL-33
T1 peptide: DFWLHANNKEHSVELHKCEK
As to the kind of experiment: ELISA, biotinylated peptide on streptavidin plate, antibody 10 µg/mL, well 2. As to the method: (§1) To determine the binding activity of antibody to each polypeptide fragment, the ELISA plate was pre-coated by biotin-avidin (SA) which was diluted in coating solution (50 mM carbonate coating buffer, pH 9.6) to 2 μg/ml at 4° C. overnight. The plate was washed with PBST for 3 times, and then blocked with 2% BSA prepared in PBS at room temperature for 2 h with 200 μL/well. The plate was washed once with PBST, and 864F3 and 874F7 with final concentrations of 10 μg/mL were added at 100 μL/well, respectively, and the plate was incubated at room temperature for 1 h. The plate was washed with PBST for 3 times, and the goat anti-mouse IgG labeled by HRP was added and placed at 37° C. for 30 min. After washing the plate with PBST for 3 times, the plate was patted on the absorbent paper to remove residual droplets as far as possible. 100 μl TMB developing solution was added to each well, and the plate was placed at room temperature (20±5° C.) for 5 minutes away from light; 50 μl 2M H₂SO₄ terminating solution was added to each well to terminate the substrate reaction. OD values were read at 450 nm on the microplate reader to analyze the binding ability of the antibody to each polypeptide fragment. The experimental results are shown in […]
In general terms: An ELISA detects its analyte on a solid surface through an enzyme-linked reagent.

Test [2] deals with T2, Pep12 (human, N-terminal biotin).
T2 construct: Synthetic 20-mer of human IL-33
T2 peptide: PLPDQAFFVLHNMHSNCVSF
The test is described as above. As to the method:
as §1

The target in test [3] is T3, Pep2 (human, N-terminal biotin).
T3 construct: Synthetic 20-mer of human IL-33
T3 peptide: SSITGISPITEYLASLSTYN
Described as above. As to the method:
as §1

Test [4] addresses T4, Pep6 (human, N-terminal biotin).
T4 construct: Synthetic 20-mer of human IL-33
T4 peptide: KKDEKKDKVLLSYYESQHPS
The test is described as above. As to the method: as §1

The target in test [5] is T5, Pep16 (human, N-terminal biotin).
T5 construct: Synthetic 20-mer of human IL-33
T5 peptide: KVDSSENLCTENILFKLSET
Described as above. The protocol:
as §1

The target of test [6] is T6, Pep8 (human, N-terminal biotin).
T6 construct: Synthetic 20-mer of human IL-33
T6 peptide: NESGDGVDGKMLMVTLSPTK
Described as above. As to the method: as §1

In test [7] the target is T7, Pep7 (human, N-terminal biotin).
T7 construct: Synthetic 20-mer of human IL-33
T7 peptide: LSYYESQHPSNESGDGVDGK
The description is as above. As to the method: as §1

For test [8], the target named is T8, Pep1 (human, N-terminal biotin).
T8 construct: Synthetic 20-mer of human IL-33
T8 peptide: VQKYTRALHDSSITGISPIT
The description is as above. The protocol: as §1

Test [9] concerns the target T9, Pep3 (human, N-terminal biotin).
T9 construct: Synthetic 20-mer of human IL-33
T9 peptide: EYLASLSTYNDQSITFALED
The description is as above. The protocol:
as §1

Test [10] deals with T10, Pep5 (human, N-terminal biotin).
T10 construct: Synthetic 20-mer of human IL-33
T10 peptide: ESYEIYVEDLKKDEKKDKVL
The description is as above. As to the method:
as §1

The target in test [11] is T11, IL-33 protein without any mutation (WT) (human, UniProt O95760 112-270).
T11 construct: Control of the alanine scan (four runs WT-1 to WT-4); also called WT-1; WT-2
T11 sequence: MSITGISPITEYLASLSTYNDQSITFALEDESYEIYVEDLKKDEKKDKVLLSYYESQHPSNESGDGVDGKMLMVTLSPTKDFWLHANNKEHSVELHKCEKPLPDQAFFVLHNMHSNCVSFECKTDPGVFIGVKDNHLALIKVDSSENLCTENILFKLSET
As to the kind of experiment: ELISA as Example 9; row WT-4, the reference itself. As to the method: (§2) SA protein was diluted to 2 μg/mL to coat ELISA plate at 100 μL/well overnight at 4° C. The plate was washed with PBST (PBS containing 0.05% Tween20) for 3 times, and blocked with 2% BSA prepared in PBS at 200 μL/well, at room temperature for 2 h. After the plate was washed twice with PBST, IL-33-his-biotin protein was diluted to 1 μg/mL with 1% BSA prepared in PBST, and was added to ELISA plate at 100 μL/well. The plate was incubated at room temperature for 1 h, and each monoclonal antibody was diluted with 1% BSA prepared in PBST in a 3-fold gradient. The highest concentration of antibody was 10 μg/mL, and the antibody was diluted for 12 gradients. Each diluted monoclonal antibody was added to ELISA wells with 100 μL/well, and the plate was incubated at room temperature for 1 h. Each sample was added to duplicate wells in parallel. The plate was washed with PBST for 3 times, and HRP-anti human IgG Fc secondary antibody prepared with PBST was diluted at an appropriate ratio, and was added to ELISA wells at 100 μL/well. […] Each reaction solution was shaken uniformly and OD450 nm was read on a microplate reader. The data was analyzed and EC₅₀ was calculated.
(§3) Subsequently, according to the experimental method of Example 9, the affinity of the above mutant proteins to 874F7-Hu1 was determined, and IL-33 proteins (WT-1, WT-2, WT-3, and WT-4) without any mutation were set as controls.

The target in test [12] is T12, IL-33 mutant protein Y53A (human, UniProt O95760 112-270).
T12 construct: Prokaryotic expression
T12 chain: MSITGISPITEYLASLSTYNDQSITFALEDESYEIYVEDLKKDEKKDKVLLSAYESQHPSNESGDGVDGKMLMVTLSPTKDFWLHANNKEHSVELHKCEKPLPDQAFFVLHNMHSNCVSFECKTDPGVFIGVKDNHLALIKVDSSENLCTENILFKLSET
As to the kind of experiment: ELISA as Example 9; row Y53A. As to the method: as §2, §3

The target in test [13] is T13, IL-33 mutant protein S60A (human, UniProt O95760 112-270).
T13 construct: Prokaryotic expression; also called 560A
T13 chain: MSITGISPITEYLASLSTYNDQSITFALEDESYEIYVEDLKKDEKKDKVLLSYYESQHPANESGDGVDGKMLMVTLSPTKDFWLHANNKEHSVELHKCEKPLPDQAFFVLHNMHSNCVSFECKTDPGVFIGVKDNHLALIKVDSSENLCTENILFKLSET
As to the kind of experiment: ELISA by the method of Example 9 with the IL-33 mutant protein on the plate, 874F7-Hu1 in serial dilution, HRP anti-human IgG Fc, absorbance 450 nm.

B1: 874F7 (antibody, V domains shown)
VH: QVQLKESGPGLVAPSHSLSITCNVSGFSLSKYGVHWIRQIPGRGLDWLGVLRAGGSTGYNSALMSRLSISKDSSKSQVFLKMNDLRTDDTAVYFCVRDHYYYSSYGGFVYWGQGTLVTVSA
VL: DIQMTQSPASQSASLGESVTITCLASQTIGAWLAWYRQQPGKSPQLLIYAATRLADGVPSRFSGSGSGTEFSFKINNLQAEDFVSYYCQQLDSSPYTFGGGTRLEM
notes: Murine hybridoma antibody purified on Protein G; also called murine antibody 874F7
With B1, the OD450 worked out at 0.052 OD450 in [1]; 0.053 OD450 in [2]; 0.05 OD450 in test [3]; 1.03 OD450 in test [4]; 0.049 OD450 in [5]; 0.047 OD450 in test [6]. Besides, the OD450 in [7] was 0.051 OD450; in test [8] it was 0.061 OD450; in [9], 0.048 OD450; in [10] it was 0.049 OD450.

B2: 874F7-Hu1 (antibody, human IgG4 S228P, kappa)
heavy: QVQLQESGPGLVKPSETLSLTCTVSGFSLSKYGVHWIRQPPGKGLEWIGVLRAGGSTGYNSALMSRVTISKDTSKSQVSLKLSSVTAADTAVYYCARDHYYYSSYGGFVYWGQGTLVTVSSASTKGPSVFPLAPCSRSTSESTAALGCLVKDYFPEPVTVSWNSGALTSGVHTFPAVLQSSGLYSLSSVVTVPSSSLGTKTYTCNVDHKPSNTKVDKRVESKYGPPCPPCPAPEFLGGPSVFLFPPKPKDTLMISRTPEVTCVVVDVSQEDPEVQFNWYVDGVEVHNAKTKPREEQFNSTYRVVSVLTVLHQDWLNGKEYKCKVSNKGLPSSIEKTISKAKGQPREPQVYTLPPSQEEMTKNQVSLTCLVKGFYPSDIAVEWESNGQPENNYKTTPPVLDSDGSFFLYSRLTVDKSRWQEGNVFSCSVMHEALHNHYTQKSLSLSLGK
light: DIQMTQSPSSVSASVGDRVTITCLASQTIGAWLAWYQQKPGKSPKLLIYAATRLADGVPSRFSGSGSGTDFTLTISSLQPEDFATYYCQQLDSSPYTFGQGTKVEIKRTVAAPSVFIFPPSDEQLKSGTASVVCLLNNFYPREAKVQWKVDNALQSGNSQESVTEQDSKDSTYSLSSTLTLSKADYEKHKVYACEVTHQGLSSPVTKSFNRGEC
notes: also called 874F7-Hul; humanized antibody 874F7-Hu1
Usually EC50 stands for the concentration at which the effect is half-maximal. A higher EC50 goes with a less potent agent. The EC50 (read off the curve) is the concentration needed to bring the measured effect to its halfway point. Read a high EC50 (read off the curve) as a less potent agent. Regarding B2, the Affinity decline ratio in [11] turned out to be 1 fold. In test [12], the EC50 turned out to be 0.44 nM. Besides, in test [13], the “EC50 (read off the curve)” value was around 1 nM.
